Test results reported in patent EP4537907A1 (Enthera S.r.l., dated 2025).

T1: mouse CD248 expressed on the cell membrane of transiently transfected HEK 293 cells (mouse, UniProt Q91V98 18-765)
T1 construct: whole, on cells; also called mouse CD248+ cells
T1 sequence (looked up): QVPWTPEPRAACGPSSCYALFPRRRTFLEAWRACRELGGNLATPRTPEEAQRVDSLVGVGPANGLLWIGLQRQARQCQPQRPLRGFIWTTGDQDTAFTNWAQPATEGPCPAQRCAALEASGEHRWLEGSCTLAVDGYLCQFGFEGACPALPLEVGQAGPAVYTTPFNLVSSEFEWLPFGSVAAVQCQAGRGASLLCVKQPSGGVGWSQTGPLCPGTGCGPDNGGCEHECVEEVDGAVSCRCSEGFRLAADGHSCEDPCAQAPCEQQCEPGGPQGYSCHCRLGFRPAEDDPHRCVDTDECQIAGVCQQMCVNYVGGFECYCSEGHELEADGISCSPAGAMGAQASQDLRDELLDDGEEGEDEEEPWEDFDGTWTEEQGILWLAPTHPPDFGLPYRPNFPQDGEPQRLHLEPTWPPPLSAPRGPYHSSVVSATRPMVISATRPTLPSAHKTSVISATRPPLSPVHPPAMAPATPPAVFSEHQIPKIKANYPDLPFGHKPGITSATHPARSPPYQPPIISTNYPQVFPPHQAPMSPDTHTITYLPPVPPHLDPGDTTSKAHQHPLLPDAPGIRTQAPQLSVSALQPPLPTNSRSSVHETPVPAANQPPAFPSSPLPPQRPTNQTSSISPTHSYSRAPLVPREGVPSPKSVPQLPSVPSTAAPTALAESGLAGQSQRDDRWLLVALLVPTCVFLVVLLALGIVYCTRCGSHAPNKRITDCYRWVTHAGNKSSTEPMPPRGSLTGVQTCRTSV

T2: human CD248 expressed on the cell membrane of transiently transfected HEK 293 cells (human, UniProt Q9HCU0 18-757)
T2 construct: whole, on cells; also called human CD248+ cells; CD248-positive cells
T2 sequence (looked up): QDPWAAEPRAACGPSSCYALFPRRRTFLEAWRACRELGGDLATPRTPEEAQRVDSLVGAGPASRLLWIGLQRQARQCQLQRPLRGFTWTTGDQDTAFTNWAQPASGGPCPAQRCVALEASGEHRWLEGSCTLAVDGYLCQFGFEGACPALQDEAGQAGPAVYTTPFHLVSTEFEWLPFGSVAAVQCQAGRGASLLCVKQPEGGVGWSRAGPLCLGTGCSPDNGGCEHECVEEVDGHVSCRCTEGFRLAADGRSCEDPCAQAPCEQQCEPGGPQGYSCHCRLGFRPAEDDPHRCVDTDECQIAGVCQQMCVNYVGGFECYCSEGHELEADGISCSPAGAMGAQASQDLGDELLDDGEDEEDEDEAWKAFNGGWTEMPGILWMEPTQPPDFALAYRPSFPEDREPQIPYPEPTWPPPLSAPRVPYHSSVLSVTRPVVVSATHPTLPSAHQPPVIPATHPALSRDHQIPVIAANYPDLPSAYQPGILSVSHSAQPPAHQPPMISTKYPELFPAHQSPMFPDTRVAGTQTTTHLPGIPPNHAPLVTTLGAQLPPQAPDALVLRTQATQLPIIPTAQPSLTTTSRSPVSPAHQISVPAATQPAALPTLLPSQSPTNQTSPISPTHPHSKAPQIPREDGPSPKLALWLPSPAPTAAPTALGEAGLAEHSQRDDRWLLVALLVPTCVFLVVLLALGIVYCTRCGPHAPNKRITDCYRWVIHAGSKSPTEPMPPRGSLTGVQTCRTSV

T3: recombinant human CD248 (internally produced) (human, UniProt Q9HCU0 18-687, limits assumed, biotinylated in the inhibition ELISA)
T3 construct: Soluble recombinant protein; also called human recombinant CD248; biotinylated CD248 (internally produced)
T3 sequence (looked up): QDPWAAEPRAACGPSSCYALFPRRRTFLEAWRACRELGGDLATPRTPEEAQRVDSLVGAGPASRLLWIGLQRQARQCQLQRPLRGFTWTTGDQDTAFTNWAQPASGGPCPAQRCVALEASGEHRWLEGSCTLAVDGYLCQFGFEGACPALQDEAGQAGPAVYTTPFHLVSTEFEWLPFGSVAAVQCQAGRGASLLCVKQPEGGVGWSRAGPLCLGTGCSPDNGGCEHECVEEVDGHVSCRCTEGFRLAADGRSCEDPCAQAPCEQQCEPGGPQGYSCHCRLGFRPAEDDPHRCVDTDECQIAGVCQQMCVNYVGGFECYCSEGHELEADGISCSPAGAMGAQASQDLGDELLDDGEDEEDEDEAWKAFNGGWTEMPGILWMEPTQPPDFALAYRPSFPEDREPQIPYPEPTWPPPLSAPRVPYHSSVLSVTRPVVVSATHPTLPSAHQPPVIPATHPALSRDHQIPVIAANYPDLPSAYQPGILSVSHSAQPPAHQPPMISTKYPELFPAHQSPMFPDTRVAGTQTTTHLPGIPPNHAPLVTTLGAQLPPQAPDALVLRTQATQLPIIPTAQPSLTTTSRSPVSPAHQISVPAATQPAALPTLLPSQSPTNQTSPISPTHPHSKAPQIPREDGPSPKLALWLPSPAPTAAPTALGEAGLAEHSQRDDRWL

T4: recombinant mouse CD248 (internally produced) (mouse, UniProt Q91V98 18-695, limits assumed)
T4 construct: also called murine recombinant CD248; Murine CD248
T4 sequence (looked up): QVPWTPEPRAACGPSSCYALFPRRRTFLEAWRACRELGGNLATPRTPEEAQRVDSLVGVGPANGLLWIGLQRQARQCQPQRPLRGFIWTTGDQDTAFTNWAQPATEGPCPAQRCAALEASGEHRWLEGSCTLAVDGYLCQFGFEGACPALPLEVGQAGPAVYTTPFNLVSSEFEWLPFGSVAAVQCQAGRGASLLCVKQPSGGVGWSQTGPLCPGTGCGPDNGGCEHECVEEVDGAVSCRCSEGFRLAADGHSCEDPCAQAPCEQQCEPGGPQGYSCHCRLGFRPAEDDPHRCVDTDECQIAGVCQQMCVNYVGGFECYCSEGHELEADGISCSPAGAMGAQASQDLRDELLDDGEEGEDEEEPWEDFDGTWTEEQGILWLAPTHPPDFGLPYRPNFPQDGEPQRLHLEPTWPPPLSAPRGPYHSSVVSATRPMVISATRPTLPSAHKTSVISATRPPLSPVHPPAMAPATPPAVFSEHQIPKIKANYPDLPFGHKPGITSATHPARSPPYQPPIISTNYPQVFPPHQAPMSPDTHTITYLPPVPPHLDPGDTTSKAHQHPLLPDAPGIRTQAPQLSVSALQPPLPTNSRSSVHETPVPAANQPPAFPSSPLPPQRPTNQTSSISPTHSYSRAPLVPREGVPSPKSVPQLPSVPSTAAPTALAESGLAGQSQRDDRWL


Tests used:
[1] = target: T1, mouse CD248 expressed on the cell …; assay: flow cytometry on transiently transfected HEK 293 cells, secondary anti-human IgG, antibody concentration series
[2] = target: T2, human CD248 expressed on the cell …; assay: as above
[3] = target: T3, recombinant human CD248 (internally …); assay: BLI (Octet platform, BLItz System), mAb captured via Fc on AHC biosensor, soluble antigen at different concentrations
[4] = target: T4, recombinant mouse CD248 (internally …); assay: as above
[5] = target: T3, recombinant human CD248 (internally …); assay: competition ELISA: purified IgG4 (S228P/L235E) with biotinylated human CD248, added to immobilised human IGFBP5, Streptavidin-HRP
[6] = target: T5, irrelevant antigen expressed on HEK 293 cells after transient transfection (human); assay: flow cytometry on HEK 293 cells transiently transfected with an irrelevant antigen (negative control), secondary anti-human IgG
T5 construct: Negative control antigen; also called irrelevant human antigen; irrelevant Ag+ cells

Binder | EC50 [1] | EC50 [2] | Kd [3] | Kd [4] | IC50 [5] | EC50 [6]
YU1024-G01 (antibody, human IgG4, V domains shown, Tested as full human IgG4 carrying the S228P/L235E mutations) VH: QVQLQESGGGVVQPGRSLRLSCAASGFTFSSYAMHWVRQAPGKGLEWVAVISYDGSNKYYADSVKGRFTISRDNSKNTLYLQMNSLRAEDTAVYYCARNNHPRGERLPQYWGQGTLVTVSS VL: DIQLTQSPSSLSASVGDRVTITCRASQSVGSYLNWYQHKPGKAPKLLIYVASRLQSGVPSRFSGSGSGTDFTLTINSLQPEDFATYYCQQSYSTPLTFGGGTKVEIK | ~0.00985 µg/mL | 0.0121 µg/mL | 3.78 nM | 3.91 nM | 4.7 µg/mL | 2.11 µg/mL
YU1023-E03 (antibody, human IgG4, V domains shown, Tested as full human IgG4 carrying the S228P/L235E mutations; It was scarcely produced (<0.1 mg/ml)) VH: EVQLLESGGGVVQPGRSLRLSCAASGFTFSSYAMHWVRQAPGKGLEWVAVISYDGSNKYYADSVKGRFTISRDNSKNTLYLQMNSLRAEDTAVYYCARSIAAAGTRWFDPWGQGTLVTVSS VL: DIQLTQSPSSVSASVGDRVTITCRASQGISSWLAWYQQKPGKAPKLLIYAASSLQSGVPSRFSGSGSGTDFTLTISSLQPEDFATYYCQQANSFPLTFGGGTKLEIK | 0.891 µg/mL | 1.49 µg/mL | – | – | 17.4 µg/mL | 3.84 µg/mL
YU1025-B07 (antibody, V domains shown, Tested as full human IgG4 carrying the S228P/L235E mutations) VH: QVQLVQSGGGVVQPGRSLRLSCAASGFTFSSYAMHWVRQAPGKGLEWVAVISYDGSNKYYADSVKGRFTISRDNSKNTLYLQMNSLRAEDTAVYYCARTKARWFGVTTYMDVWGKGTLVTVSS VL: not shown | 0.0216 µg/mL | 0.0236 µg/mL | 11.7 nM | 14.2 nM | 19.2 µg/mL | 1.68 µg/mL
YU1023-A02 (antibody, human IgG4, V domains shown, Tested as full human IgG4 carrying the S228P/L235E mutations; also called YU1023-A02 mAb) VH: QVQLVESGPGLVKPSQTLSLTCTVSGGSISSGGYYWSWIRQHPGKGLEWIGYIYYSGSTYYNPSLKSRVTISVDTSKNQFSLKLSSVTAADTAVYYCARVRGRSATYFDYWGQGTTVTVSS VL: QSVLTQPPSVSGAPGQRVTISCTGSSSNIGAGYDVRWYQQLPGTAPKLLIYANNNRPSGVPDRFSGSKSGTSASLAITGLQTEDEADYYCQSYDISLSGSLFGGGTKLTVL | 0.0388 µg/mL | 0.0523 µg/mL | 9.94 nM | 10.1 nM | 20.8 µg/mL | 3.16 µg/mL
YU1023-B03 (antibody, human IgG4, V domains shown, Tested as full human IgG4 carrying the S228P/L235E mutations) VH: not shown VL: DVVMTQSPLSLPVTPGEPASISCRSSQSLLHSNGYNYLDWYVQKPGQSPQRLIYFTSNRASGVPDRFSGSGSGTDFTLKISRVEAEDVGVYYCMQSIQLPRTFGQGTKVEIK | 0.0184 µg/mL | 0.0401 µg/mL | 18.6 nM | 7.99 nM | 47.6 µg/mL | 3.66 µg/mL
